Laboratory results published in paper PMC5923229 (2018).

Target: the molecule itself

B1: H46R/H48Q SOD1 with ebsulphur conjugated at Cys111 (enzyme)
chain: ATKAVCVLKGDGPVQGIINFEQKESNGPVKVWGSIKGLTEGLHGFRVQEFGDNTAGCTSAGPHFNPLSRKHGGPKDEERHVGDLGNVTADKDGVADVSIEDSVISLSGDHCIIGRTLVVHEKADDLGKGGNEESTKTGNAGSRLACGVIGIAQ
modifications: ebsulphur conjugated at Cys111
  Kd: 676 nM
